Source: publication PMC4477937
Where two headings read alike, the source gives them in different places.

How the values were obtained:
TNF-α (Homo sapiens) [1] = molecular target: TNF-α (Homo sapiens) (UniProt P01375); settings: cited from earlier work
TGF-β2 (Homo sapiens) [2] = molecular target: TGF-β2 (Homo sapiens) (UniProt P61812); settings: cited from earlier work
TGF-β1 (Homo sapiens) [3] = molecular target: TGF-β1 (Homo sapiens) (UniProt P01137); settings: cited from earlier work
TGF-β1 (Homo sapiens) [4] = molecular target: TGF-β1 (Homo sapiens) (UniProt P01137); settings: cited from earlier work; remark: listed apart in the source
TGF-β2 (Homo sapiens) [5] = molecular target: TGF-β2 (Homo sapiens) (UniProt P61812); settings: cited from earlier work; remark: listed apart in the source
TNF-α (Homo sapiens) [6] = molecular target: TNF-α (Homo sapiens) (UniProt P01375); settings: cited from earlier work; remark: listed apart in the source
[7] = molecular target: lipoprotein receptors (on SH-SY5Y cells) (human (endogenous in SH-SY5Y)); assay: flow cytometry on cells; SH-SY5Y cells detached with EDTA, in Hank's binding buffer, steps of 30 min at 4°C: RAP (8 μM) or buffer alone, then α2M (100 nM), rabbit anti-α2M, anti-rabbit IgG-FITC; viable cells gated by propidium iodide; α2M preparations stored at 4°C or -20°C for 10 days

Sequence of alpha-2-macroglobulin (native) (P01023 24-1474): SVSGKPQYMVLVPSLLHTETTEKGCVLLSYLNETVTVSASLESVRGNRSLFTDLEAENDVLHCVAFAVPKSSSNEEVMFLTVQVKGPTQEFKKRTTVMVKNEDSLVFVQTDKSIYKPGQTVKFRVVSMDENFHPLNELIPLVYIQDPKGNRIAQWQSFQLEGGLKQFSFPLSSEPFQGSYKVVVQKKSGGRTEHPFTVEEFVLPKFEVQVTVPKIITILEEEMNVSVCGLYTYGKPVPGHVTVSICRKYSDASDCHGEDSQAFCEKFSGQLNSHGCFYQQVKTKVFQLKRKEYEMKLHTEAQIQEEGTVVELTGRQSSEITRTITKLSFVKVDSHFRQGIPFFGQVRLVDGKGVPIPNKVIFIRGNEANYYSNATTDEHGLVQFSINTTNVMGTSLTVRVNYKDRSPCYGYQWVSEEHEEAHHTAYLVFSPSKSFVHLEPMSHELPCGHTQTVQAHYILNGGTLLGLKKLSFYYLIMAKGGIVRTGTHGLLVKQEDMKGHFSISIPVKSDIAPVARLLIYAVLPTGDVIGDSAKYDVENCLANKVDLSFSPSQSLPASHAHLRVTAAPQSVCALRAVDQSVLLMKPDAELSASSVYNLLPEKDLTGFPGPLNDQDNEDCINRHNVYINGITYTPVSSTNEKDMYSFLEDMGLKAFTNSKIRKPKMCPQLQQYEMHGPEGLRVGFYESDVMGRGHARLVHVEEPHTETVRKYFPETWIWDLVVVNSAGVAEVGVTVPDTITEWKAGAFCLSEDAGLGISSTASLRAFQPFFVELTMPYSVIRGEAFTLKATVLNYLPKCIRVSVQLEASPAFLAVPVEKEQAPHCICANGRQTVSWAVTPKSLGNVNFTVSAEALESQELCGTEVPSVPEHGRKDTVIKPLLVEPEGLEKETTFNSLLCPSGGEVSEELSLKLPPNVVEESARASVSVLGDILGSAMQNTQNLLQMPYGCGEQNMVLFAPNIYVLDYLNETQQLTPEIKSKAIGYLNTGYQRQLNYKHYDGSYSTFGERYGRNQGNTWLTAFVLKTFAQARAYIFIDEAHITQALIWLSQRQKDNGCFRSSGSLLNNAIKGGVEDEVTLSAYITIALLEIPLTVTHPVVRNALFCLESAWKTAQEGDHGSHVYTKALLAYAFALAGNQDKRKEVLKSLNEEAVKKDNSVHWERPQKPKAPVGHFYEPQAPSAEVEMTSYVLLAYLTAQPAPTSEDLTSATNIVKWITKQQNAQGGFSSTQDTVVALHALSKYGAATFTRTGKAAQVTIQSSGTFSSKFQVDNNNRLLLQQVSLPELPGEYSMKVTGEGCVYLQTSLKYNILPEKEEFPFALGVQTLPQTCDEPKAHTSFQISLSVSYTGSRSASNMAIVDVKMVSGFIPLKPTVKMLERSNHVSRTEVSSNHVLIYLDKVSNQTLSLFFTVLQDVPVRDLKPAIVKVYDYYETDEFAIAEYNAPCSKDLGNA
Sequence of alpha-2-macroglobulin (transformed, α2M*) (P01023 24-1474): as above
Sequence of glutathione-S-transferase-RAP (receptor-associated protein) (P30533 35-357): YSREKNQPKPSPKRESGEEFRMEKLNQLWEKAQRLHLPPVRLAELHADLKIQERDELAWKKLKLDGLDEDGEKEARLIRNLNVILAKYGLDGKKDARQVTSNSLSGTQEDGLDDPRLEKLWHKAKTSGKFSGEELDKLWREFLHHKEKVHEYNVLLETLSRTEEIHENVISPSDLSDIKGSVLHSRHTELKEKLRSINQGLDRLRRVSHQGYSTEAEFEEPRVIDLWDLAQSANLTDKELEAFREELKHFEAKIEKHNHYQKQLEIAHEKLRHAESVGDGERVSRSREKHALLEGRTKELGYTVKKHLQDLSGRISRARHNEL
Sequence of TGF-β1 (Homo sapiens) (P01137 279-390): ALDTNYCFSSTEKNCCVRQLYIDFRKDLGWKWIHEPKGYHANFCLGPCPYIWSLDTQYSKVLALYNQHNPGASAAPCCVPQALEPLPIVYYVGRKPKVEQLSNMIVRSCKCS
Sequence of TNF-α (Homo sapiens) (P01375 77-233): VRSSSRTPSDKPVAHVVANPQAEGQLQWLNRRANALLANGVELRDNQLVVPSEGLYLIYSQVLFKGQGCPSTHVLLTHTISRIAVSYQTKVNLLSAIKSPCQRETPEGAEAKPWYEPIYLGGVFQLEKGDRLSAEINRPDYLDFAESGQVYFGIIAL
Sequence of TGF-β2 (Homo sapiens) (P61812 303-414): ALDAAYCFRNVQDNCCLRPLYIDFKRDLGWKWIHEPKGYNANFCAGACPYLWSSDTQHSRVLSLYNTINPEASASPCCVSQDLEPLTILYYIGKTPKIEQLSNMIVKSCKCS

Substance: alpha-2-macroglobulin (native) (from UniProt P01023)
- Kd (TNF-α (Homo sapiens) [1]): > 1270 nM
- Kd (TGF-β2 (Homo sapiens) [2]): 11 nM
- Kd (TGF-β1 (Homo sapiens) [3]): 330 nM

Substance: alpha-2-macroglobulin (transformed, α2M*) (from UniProt P01023)
- Kd (TGF-β1 (Homo sapiens) [4]): 80 nM
- Kd (TGF-β2 (Homo sapiens) [5]): 13 nM
- Kd (TNF-α (Homo sapiens) [6]): > 750 nM

Substance: glutathione-S-transferase-RAP (receptor-associated protein) (from UniProt P30533 35-357) (natural protein)
- percent of the cell surface binding of the frozen α2M preparations inhibited by RAP [7]: 20 to 50%
- percent of the cell surface binding of α2M inhibited by RAP (α2M in PBS/Az at -20°C; α2M in phosphate buffer with 100 mM NaCl at -20°C after rapid freezing) [7]: 20%
